Measured values published in patent publication US20120015885A1 (published 2012).
Blank lines part the entries; values can stand above or below the binder they belong to.

What was measured:
[1] = molecular target: calcium/calmodulin (CaM)-dependent protein kinase II (CaMKII) (UniProt P11275 1-478); experiment: cell-based or functional assay
[2] = molecular target: CaMKI; experiment: cell-based or functional assay
[3] = molecular target: 2-chloro-(ε-amino-Lys75)-[6-(4-N,N-diethylaminophenyl)-1,3,5-triazin-4-yl]calmodulin (TA-CaM) (UniProt P0DP23 2-149); experiment: competition with CBD for TA-CaM, fluorescence
[4] = molecular target: biotinylated CaM (UniProt P0DP23 2-149); experiment: slot blot with biotinylated CaM (FIG. 9E) and TA-CaM competition (FIG. 9G)

calcium/calmodulin (CaM)-dependent protein kinase II (CaMKII), sequence (P11275 whole entry): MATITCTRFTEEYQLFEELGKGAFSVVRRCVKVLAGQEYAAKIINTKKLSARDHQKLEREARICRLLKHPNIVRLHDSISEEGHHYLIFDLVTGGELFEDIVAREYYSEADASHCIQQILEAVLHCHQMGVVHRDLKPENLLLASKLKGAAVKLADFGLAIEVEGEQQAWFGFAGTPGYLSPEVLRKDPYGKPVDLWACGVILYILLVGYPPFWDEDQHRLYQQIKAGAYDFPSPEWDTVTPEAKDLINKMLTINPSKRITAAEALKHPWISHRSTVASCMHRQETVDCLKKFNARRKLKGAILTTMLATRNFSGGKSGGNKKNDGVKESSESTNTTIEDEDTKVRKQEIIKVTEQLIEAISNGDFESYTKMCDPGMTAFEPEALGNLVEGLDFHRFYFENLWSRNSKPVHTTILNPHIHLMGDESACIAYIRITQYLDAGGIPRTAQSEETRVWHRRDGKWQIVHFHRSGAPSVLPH

Binder: KRPPKLGQIGRSKRVVIEDDR [CN21]
IC50, phosphorylation of syntide 2 by CaMKII [1]: ~100 nM

Binder: KRPPKLGQIGRSKRVVIEDD [CN20]
IC50, phosphorylation of syntide 2 by CaMKII [1]: ~100 nM

Binder: KRPPKLGQIGRSKRVVIED [CN19]
IC50, phosphorylation of syntide 2 by CaMKII [1]: ~100 nM
IC50, CaMKI activity [2]: ~36000 nM

Binder: KRAPKLGQIGRVKAVVIED [CN19a2v]
IC50, CaMKII activity towards syntide 2 [1]: ~20 nM
fold increase of potency against CN19 [1]: ~5 fold
IC50, CaMKI activity [2]: ~18000 nM

Binder: KRAPKLGQIGRQKAVVIED [V12Q mutant of CN19a2v]
IC50, CaMKII activity [1]: ~1 nM

Second part, the binder after the results:

IC50, CaMKII activity [1]: < 10 nM
fold increase of potency against CN19 wild type [1]: > 10 fold
Binder: KRPPKLGQIGRSKAVVIED [CN19 R14A]

IC50, CaMKII activity [1]: ~1 nM
Binder: KRAPKLGQIGRVKAVDIED [V16D mutant of CN19a2v]

IC50, CaMKII activity [1]: ~0.75 nM
fold increase of potency against CN19 [1]: > 125 fold
selectivity for CaMKII vs CaMKI [1]: ~50000 fold
IC50, CaMKI activity [2]: ~38000 nM
Binder: KRAPKLGQIGRQKAVDIED [CN19o]

Kd [3]: ~1 nM
B1: antCN27 (peptide)
peptide: RQIKIWFQNRRMKWKKRPPKLGQIGRSKRVVIEDDRIDDVLK
notes: a final (K) of ant was replaced by the first K of the CN peptide in the fusion

Kd [3]: ~5 nM
B2: ant (peptide)
peptide: RQIKIWFQNRRMKWK
notes: whether the free peptide had it is not clear; also called ant peptide; penetratin

binding result [4]: no binding
Binder: KRPPKLGQIGRSKRVVIEDDRIDDVLK (also called CaM-KIINtide) [CN27]
